We go through 8 molecules from paper PMC9318647, “Human and Bacterial Toll-Interleukin Receptor Domains Exhibit Distinct Dynamic Features and Functions” (Molecules, 2022).

B1: human TLR1 TIR domain (TLR1-TIR), residues 625-786, untagged (domain or fragment, UniProt Q15399 625-786, looked up)
chain: NIPLEELQRNLQFHAFISYSGHDSFWVKNELLPNLEKEGMQICLHERNFVPGKSIVENIITCIEKSYKSIFVLSPNFVQSEWCHYELYFAHHNLFHEGSNSLILILLEPIPQYSIPSSYHKLKSLMARRTYLEWPKEKSKRGLFWANLRAAINIKLTEQAKK
notes: human TLR1, NCBI NP_003254.2, the entire intracellular TIR region of residues 625-786; Elutes as distinct dimer and monomer peaks on Superose-12; also called untagged TLR1-TIR

Series [1] deals with tirE coil-coil (CC) domain (Enterococcus). In words: SEC; analytical sizing of the full-length bacterial TIR-containing proteins, their CC domains and TIR constructs; sample loads 200 μM, except tirS-TIR E216A 20 μM and tirA-TIR E206A 50 μM. Background: SEC sorts molecules by how far they enter the pores of the column.
In series [2] the target is Acinetobacter junii TIR protein (tirA), full length (Acinetobacter junii). Described as above.
Series [3] concerns the target Enterococcus TIR protein (tirE), full length (Enterococcus). The description is as above.
The target of series [4] is tirA coil-coil (CC) domain (Acinetobacter junii). The series is described as above.
Series [5] has as its target tirS coil-coil (CC) domain (Staphylococcus aureus). The series is described as above.
Series [6] concerns the molecule itself. Briefly: SEC; analytical Superose-12; 50 mM Na2HPO4, pH 6.5, 150 mM NaCl, 1 mM DTT; TLR1-TIR and TLR2-TIR also after 30 min in 50 mM DTT (homodimers minimized).
The target of series [7] is human TLR2 TIR domain (TLR2-TIR), residues 633-784, untagged (human) (UniProt O60603). Described as above.
The target in series [8] is B1. In words: NMR titration; 15N-TLR2-TIR at 308 μM, unlabeled partner added (TLR1-TIR 308, 616, 924 μM; full-length tirA 308 μM); 15N-HSQC; global fit of several resonances. As to conditions: both partners purified.
Series [9] deals with the molecule itself. Briefly: SEC; analytical sizing of the full-length bacterial TIR-containing proteins, their CC domains and TIR constructs; sample loads 200 μM, except tirS-TIR E216A 20 μM and tirA-TIR E206A 50 μM.

As to “tirE coil-coil (CC) domain (domain or fragment)”, the stoichiometry N in series [1] was 2.
As for “Acinetobacter junii TIR protein (tirA), full length (natural protein)”, the stoichiometry N in [2] came to 2.
The molecule “Enterococcus TIR protein (tirE), full length (natural protein)” returned a stoichiometry N in [3] of 2.
Molecule “tirA coil-coil (CC) domain (domain or fragment)” returned a stoichiometry N in series [4] of 2.
“tirS coil-coil (CC) domain (domain or fragment)”: in series [5], the stoichiometry N is 2.
In the case of B1, the “stoichiometry N” value in series [6] turned out to be 2.

B2: human TLR2 TIR domain (TLR2-TIR), residues 633-784, untagged (domain or fragment, UniProt O60603 633-784, looked up)
chain: KAPSRNICYDAFVSYSERDAYWVENLMVQELENFNPPFKLCLHKRDFIPGKWIIDNIIDSIEKSHKTVFVLSENFVKSEWCKYELDFSHFRLFDENNDAAILILLEPIEKKAIPQRFCKLRKIMNTKTYLEWPMDEAQREGFWVNLRAAIKS
notes: human TLR2, NCBI NP_001305716.1, the entire intracellular TIR region of residues 633-784; 15N-labelled in the NMR experiments; Elutes as distinct dimer and monomer peaks on Superose-12; also called 15N-TLR2-TIR
In the case of B2, the stoichiometry N in series [7] stood at 2. The same molecule displayed a Kd in [8] of 760 ± 230 µM.

B3: Staphylococcus aureus TIR protein (tirS), full length (natural protein)
chain: MSVLETKLKSQMSKSAKIARNMNKLPDEIDRLRKRIERINKKRKPTSSNIRDLEKSNKQLVTKQQKLADLQVEYTKIEKKINETKINLQKEQSRNQKKLSSMLDKNTKGNEEIMEKLLTNSDQINEISNQIKKAVNQKEIIEYDVFLSHSSLDKEDYVSKISEKLIEKGLKVFEDVKVFEIGKSQTETMNMGILNSRFVVVFLSPNFIESGWSRYEFLSFLNREINEEHVIILPIWHKVSVEDVRAYNPYLVDKYALNTSDFSIEEIVEKIYQVIVNSKN
notes: Staphylococcus aureus TIR protein (tirS), NCBI WP_000114516.1, full length (CC domain and TIR domain); also called full-length tirS
B3: the “stoichiometry N” value in series [9] amounted to 2.

A word on the stoichiometry N: it is a count of units in the complex or per binding partner. One may read the Kd as the free concentration of one partner at which half of the binding sites on the other are occupied at equilibrium, for simple one-to-one binding.
